This is an account of results in US20250027068.

The labels stand for the following.
B1: PRT-663 (protein)
chain: MQITSVWTKGVTPPTPEQFRYNNEDVIHAPYLAHQGWYDITKTFDGKDNLLCGAATAGNMLHWWFDQNKTEIEAYLSKHPEKQKIIFNNQELFDLKEAINTKDSQTNSQLFNYFRDKAFPNLSARQLGVMPDLVLDMFINGYYLNVFKTQSTDVNRPYQDKDKRGGIFDAVFTRGDQTKLLTARHDLKNKGLNEISTLIKQELTEGKALALSHTYANVSISHVINLWGADFNAEGNLEAIYVTDSDANASIGMKKYFVGINASGHVAISAKKIEGENIGAQVLGLFTLSTGKDIWQKLSLEHHHHHH
B2: PRT-697 (protein)
chain: MTITSVWTKGVIPPTPEDFRYNNEDVLHAPYVPNQGWYDITKTFDGGDNLLCGAATAGNMLHWWFDQNKEEIERYLKKYPEKQKIIFNNQELFDVRAAINTKDSQTNSKLFNYFRDKAFPNLSARQLGVMPDLVLDMFINGYYLNLGKTQSTDVNRPYQDRDKRGGIFDHVFGRGDQTTLLTARHDLKNGGLNEISDLIKQELQSGKALALSHTYANVRINHVINLWGADFDAEGNLIAIYVTDSDANSSIGMKKYYVGVNANGKVAISAKKIEGDNIGAQVLGLFTLSTGQEIWQKLSLEHHHHHH
B3: PRT-657 (protein)
chain: MQITSVWTKGVTPLTPEQFRYNNEDVIHAPYLAHQGWYDITKAFDGKDNLLCGAATAGNMLHWWFDQNKTEIEAYLSKHPEKQKIIFNNQELFDLREAINTKDSQTDSKLFNYFRDKAFPNLSARQLGVMPDLVLDMFINGYYLNVFKTQSTDVNRPYQDKDKRGGIFDAVFTRGDQTTLLTARHDLKNKGLNDISTIIKQELTEGRALALSHTYANVSISHVINLWGADFNAEGNLEAIYVTDSDANASIGMKKYFVGINAHGHVAISAKKIEGENIGAQVLGLFTLSSGKDIWQKLSLEHHHHHH
B4: PRT-660 (protein)
chain: MQITSVWTKGVTPLTPEQFRYNNEDVIHAPYLAHQGWYDITKAFDGKDNLLCGAATAGNMLHWWFDQNKTEIEAYLSKHPEKQKIIFNNQELFDLRKAINTKDDQKESALFNYFRKKAFPNLSARQLGVMPDLVLDMFINGYYLNVFKTQSTDVNRPYQDKDKRGGIFDAVFTRGDQTTLLTARHDLKNKGLNDISTIIKQELTEGRALALSHTYANVSISHVINLWGADFNAEGNLEAIYVTDSDANASIGMKKYFVGINAHGHVAISAKKIEGENIGAQVLGLFTLSSGKDIWQKLSLEHHHHHH
B5: PRT-633 (protein)
chain: MQITSVWTKGVTPLTPEQFTNNNEDVIHAPYKANQGWYDITKAFDGKDNLLCGAATAGNMLHWWFDQNKTEIEAYLSKHPEKQKIIFNNQELFDLKAAIDTKDSQTNSQLFNYFRDKAFPNLSARQLGVMPDLVLDMFINGYYLNVFKTQSTDVNRPYQDKDKRGGIFDAVFTRGDQTTLLTARHDLKNKGLNDISTIIKQELTEGKALALSHTYANVSISHVINLWGADFNAEGNLEAIYVTDSDANASIGMKKYFVGINAHGHVAISAKKIEGENIGAQVLGLFTLSSGKDIWQKLSLEHHHHHH
B6: PRT-651 (protein)
chain: MQITSVWTKGVTPLTPEQFRYNNEDVIHAPYLAHQGWYDITKAFDGKDNLLCGAATAGNMLHWWFDQNKTEIEAYLSKHPEKQKIIFNNQELFDLKAAIDTKDSQTNSQLFNYFRDKAFGNLSARQLGVMPDLVLDMFINGYYLNVGKTQSTDVNRPYQTRDKRGGIFDAVFTRGDQTTLLTARHDLKNKGLNDISTIIKQELTEGRALALSHTYANVSISHVINLWGADFNAEGNLEAIYVTDSDANASIGMKKYFVGINAHGHVAISAKKIEGENIGAQVLGLFTLSSGKDIWQKLSLEHHHHHH
B7: PRT-681 (protein)
chain: MQITSVWTKGVTPLTPEQFRYNNEDVIHAPYLAHQGWYDITKAFDGKDNLLCGAATAGNMLHWWFDQNKTEIEAYLSKYPEKQKIIFNNQELFDLRAAINTKDSQTNSQLFNYFRDKAFPNLSARQLGVMPDLVLDMFINGYYLNVFKTQSTDVNRPYQDKDKRGGIFDAVFTRGDQTTLLTARHDLKNKGLNDISTIIKQELTEGRALALSHTYANVSISHVINLWGADFNAEGNLEAIYVTDSDANASIGMKKYYVGINAHGHVAISAKKIEGENIGAQVLGLFTLSSGKEIWQKLSLEHHHHHH
B8: PRT-611 (protein)
chain: MQITSVWTKGVTPLTPEQFRYNNEDVIHAPYLAHQGWYDITKAFDGKDNLLCGAATAGNMLHWWFDQNKTEIEAYLSKHPEKQKIIFNNQELFDLKAAIDTKDSQTNSQLFNYFRDKAFPNLSARQLGVMPDLVLDMFINGYYLNVFKTQSTDVNRPYQDKDKRGGIFDAVFTRGDQTTLLTARYDLYNKGLNDISTIIKQELTEGRALALSHTYANVSISHVINLWGADFNAEGNLEAIYVTDSDANASIGMKKYFVGINAHGHVAISAKKIEGENIGAQVLGLFTLSSGKDIWQKLSLEHHHHHH
B9: PRT-610 (protein)
chain: MQITSVWTKGVTPLTPEQFRYNNEDVIHAPYLAHQGWYDITKAFDGKDNLLCGAATAGNMLHWWFDQNKTEIEAYLSKHPEKQKIIFNNQELFDLKAAIDTKDSQTNSQLFNYFRDKAFPNLSARQLGVMPDLVLDMFINGYYLNVFKTQSTDVNRPYQDKDKRGGIFDAVFTRGDQTTLLTARHDLKNKGLNDISTIIKQELTEGRALALSHTYANVSISHVINLWGADFNAEGNLEAIYVTDSDANASIGMKKYYVGINAHGHVAISAYKIEGENIGAQVLGLFTLSSGKDIWQKLSLEHHHHHH
B10: PRT-642 (protein)
chain: MQITSVWTKGVTPLTPEQFRYNNEDVIHAPYLAHQGWYDITKTFNRGDNLLCGAATAGNMLHWWFDQNKTEIEAYLSKHPEKQKIIFNNQELFDLKAAIDTKDSQTNSQLFNYFRDKAFPNLSARQGGVMPDLVLDMFINGYYLNVFKTQSTDVNRPYQDKDKRGGIFDAVFTRGDQTTLLTARHDLKNKGLNDISTIIKQELTEGRALALSHTYANVSISHVINLWGADFNAEGNLEAIYVTDSDADEKIGMKKYFVGINAHGHVAISAKKIEGENIGAQVLGLFTLSSGKDIWQKLSLEHHHHHH
B11: PRT-568 (protein)
chain: MANQEIRYSEATPSHITSVWTKGVTPPTQFIQNEDVLHAPYIANQGWYDITKTFNGKDDLLCGAATAGNMLHWWFDQNKTQIENYLKKHPEKQKINFNGEQMFDVKEAIDTKDSQTDSALFSYFKDKAFPYLSTKHLGVFPDHVIDMFINGYRLSLTNHGPTPVKRQTKDPRGGIFDAVFTRGDQSKLLTARHDFKEKTLNEISQLIKQELTEGKALGLSHTYANVRINHVINLWGADFNAEGNLEAIYVTDSDSNASIGMKKYYVGVNAAGHVAISAKEIEGDNIGAQVLGLFTLSTGQDIWQQTNLEHHHHHH
B12: PRT-619 (protein)
chain: MQITTVWTKGVTPLTPEQFRYNNEDVIHAPYLAHQGWYDITKAFDGKDNLLCGAATAGNMLHWWFDQNKTEIEAYLSKHPEKQKIIFNNQELFDLKAAIDTKDSQTNSQLFNYFRDKAFPNLSARQLGVMPDLVLDMFINGYYLNVFKTQSTDVNRPYQDKDKRGGIFDAVFTRGDQTTLLTARHDLKNGGLEDISTIIKQELKNGRALALSHTYANVSISHVINLWGADFNAEGNLSAIYVTDSDANASIGMKKYFVGINAHGHVAISAKKIEGENIGAQVLGLFTLSSGKDIWQKLSLEHHHHHH
B13: PRT-605 (protein)
chain: MQITSVWTKGVTPLTPEQFRYNNEDVIHAPYLAHQGWYDITKAFDGKDNLLCGAATAGNMLHWWFEQNKTEIEAYLSKYGDTQKIIFNNQELFDLKAAIDTKDSQTNSQLFNYFRDKAFPNLSARQLGVMPDLVLDMFINGYYLNVFKTQSTDVNRPYQDKDKRGGIFDAVFTRGDQTTLLTARHDLKNKGLNDISTIIKQELTEGRALALSHTYANVSISHVINLWGADFNAEGNLEAIYVTDSDANASIGMKKYFVGINAHGHVAISAKKIEGENIGAQVLGLFTLSSGKEIWQKLSLEHHHHHH

The target of the data set is pooled human IgG (human IgG1, 2, 3 and 4).
The protein B1 yielded an Enzyme Activity Endpoint Assay (purified): Fab′2 of 825 ng/µL, an Enzyme Activity Endpoint Assay (purified): Fc of 456 ng/µL, an Enzyme Activity Endpoint Assay (purified): IgG of 0 ng/µL and an Enzyme Activity Endpoint Assay (purified): scIgG of 0 ng/µL.

As to B2, the Enzyme Activity Endpoint Assay (purified): Fab′2 amounted to 701 ng/µL, the Enzyme Activity Endpoint Assay (purified): Fc was 430 ng/µL, the Enzyme Activity Endpoint Assay (purified): IgG was found to be 221 ng/µL and the Enzyme Activity Endpoint Assay (purified): scIgG is 161 ng/µL.

With B3, the Enzyme Activity Endpoint Assay (purified): Fab′2 stood at 430 ng/µL, the Enzyme Activity Endpoint Assay (purified): Fc was determined as 250 ng/µL, the Enzyme Activity Endpoint Assay (purified): IgG is 0 ng/µL and the Enzyme Activity Endpoint Assay (purified): scIgG stood at 0 ng/µL.

Protein B4 came in with an Enzyme Activity Endpoint Assay (purified): Fab′2 of 161 ng/µL, an Enzyme Activity Endpoint Assay (purified): Fc of 320 ng/µL, an Enzyme Activity Endpoint Assay (purified): IgG of 105 ng/µL and an Enzyme Activity Endpoint Assay (purified): scIgG of 668 ng/µL.

B5 had an Enzyme Activity Endpoint Assay (purified): Fab′2 of 749 ng/µL, an Enzyme Activity Endpoint Assay (purified): Fc of 429 ng/µL, an Enzyme Activity Endpoint Assay (purified): IgG of 0 ng/µL and an Enzyme Activity Endpoint Assay (purified): scIgG of 0 ng/µL.

The protein B6 had an Enzyme Activity Endpoint Assay (purified): Fab′2 of 542 ng/µL, an Enzyme Activity Endpoint Assay (purified): Fc of 367 ng/µL, an Enzyme Activity Endpoint Assay (purified): IgG of 168 ng/µL and an Enzyme Activity Endpoint Assay (purified): scIgG of 359 ng/µL.

On to B7, for which the Enzyme Activity Endpoint Assay (purified): Fab′2 came to 915 ng/µL, the Enzyme Activity Endpoint Assay (purified): Fc was 492 ng/µL, the Enzyme Activity Endpoint Assay (purified): IgG turned out to be 0 ng/µL and the Enzyme Activity Endpoint Assay (purified): scIgG came to 0 ng/µL.

As for B8, the Enzyme Activity Endpoint Assay (purified): Fab′2 turned out to be 924 ng/µL, the Enzyme Activity Endpoint Assay (purified): Fc amounted to 490 ng/µL, the Enzyme Activity Endpoint Assay (purified): IgG came out at 0 ng/µL and the Enzyme Activity Endpoint Assay (purified): scIgG is 0 ng/µL.

B9 returned an Enzyme Activity Endpoint Assay (purified): Fab′2 of 688 ng/µL, an Enzyme Activity Endpoint Assay (purified): Fc of 381 ng/µL, an Enzyme Activity Endpoint Assay (purified): IgG of 0 ng/µL and an Enzyme Activity Endpoint Assay (purified): scIgG of 0 ng/µL.

Regarding B10, the Enzyme Activity Endpoint Assay (purified): Fab′2 came to 175 ng/µL, the Enzyme Activity Endpoint Assay (purified): Fc worked out at 260 ng/µL, the Enzyme Activity Endpoint Assay (purified): IgG stood at 360 ng/µL and the Enzyme Activity Endpoint Assay (purified): scIgG came to 760 ng/µL.

Turning to B11, the Enzyme Activity Endpoint Assay (purified): Fab′2 was found to be 880 ng/µL, the Enzyme Activity Endpoint Assay (purified): Fc amounted to 402 ng/µL, the Enzyme Activity Endpoint Assay (purified): IgG was 0 ng/µL and the Enzyme Activity Endpoint Assay (purified): scIgG is 0 ng/µL.

In turn, B12 registered an Enzyme Activity Endpoint Assay (purified): Fab′2 of 140 ng/µL, an Enzyme Activity Endpoint Assay (purified): Fc of 283 ng/µL, an Enzyme Activity Endpoint Assay (purified): IgG of 102 ng/µL and an Enzyme Activity Endpoint Assay (purified): scIgG of 591 ng/µL.

Consider B13, for which the Enzyme Activity Endpoint Assay (purified): Fab′2 was determined as 617 ng/µL, the Enzyme Activity Endpoint Assay (purified): Fc turned out to be 357 ng/µL, the Enzyme Activity Endpoint Assay (purified): IgG came to 100 ng/µL and the Enzyme Activity Endpoint Assay (purified): scIgG amounted to 157 ng/µL.
